The values that follow come from patent US11833164B2, “Methods of treating Fabry disease in patients having a mutation in the GLA gene” (Amicus Therapeutics, Inc., priority 2019, dated 2023).

In the assay the test system is mutant form of α-Gal A expressed in HEK-293 cells. Briefly: HEK assay (GLP HEK / Migalastat Amenability Assay): α-Gal A activity in lysates of transiently transfected HEK-293 cells incubated with or without 10 μM migalastat. Type of assay: cell-based, human. To be noted: for Absolute increase (% WT): 10 μM migalastat versus baseline; for Relative increase: 10 μM migalastat α-Gal A activity relative to baseline; for 10 μM migalastat α-Gal A activity (% WT): 5 days; for 10 μM migalastat α-Gal A activity (% WT) / Baseline α-Gal A activity (% WT): percentage of baseline wild-type α-Gal A activity; for 10 μM migalastat α-Gal A activity (% WT) / Baseline α-Gal A activity (% WT) / Baseline α-Gal A activity / 10 μM migalastat α-Gal A activity: mean ± SEM; for Baseline α-Gal A activity (% WT): absence of migalastat; for Baseline α-Gal A activity / 10 μM migalastat α-Gal A activity: lysates of HEK-293 cells transfected with the mutant form; for Baseline α-Gal A activity: incubated 5 days in the absence of migalastat; for 10 μM migalastat α-Gal A activity: incubated 5 days with 10 μM migalastat. Summed up:
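HEK-293 cells transiently transfected with mutant α-Gal A and incubated with or without 10 μM migalastat; lysate activity given as nmol free 4-MU released per mg protein per hour. Values are mean±SEM.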

B1: F159V (protein)
chain: MQLRNPELHLGCALALRFLALVSWDIPGARALDNGLARTPTMGWLHWERFMCNLDCQEEPDSCISEKLFMEMAELMVSEGWKDAGYEYLCIDDCWMAPQRDSEGRLQADPQRFPHGIRQLANYVHSKGLKLGIYADVGNKTCAGFPGSFGYYDIDAQTVADWGVDLLKFDGCYCDSLENLADGYKHMSLALNRTGRSIVYSCEWPLYMWPFQKPNYTEIRQYCNHWRNFADIDDSWKSIKSILDWTSFNQERIVDVAGPGGWNDPDMLVIGNFGLSWNQQVTQMALWAIMAAPLFMSNDLRHISPQAKALLQDKDVIAINQDPLGKQGYQLRQGDNFEVWERPLSGLAWAVAMINRQEIGGPRSYTIAVASLGKGVACNPACFITQLLPVKRKLGFYEWTSRLRSHINPTGTVLLQLENTMQMSLKDLL
B1: the “Absolute increase (% WT)” value came to 29.8 % WT, the Relative increase is reported as 1.6, the “10 μM migalastat α-Gal A activity (% WT)” value turned out to be 80.7 ± 4.8 % WT and the “Baseline α-Gal A activity (% WT)” value stood at 50.9 ± 2.9 % WT. The “Baseline α-Gal A activity” value came to 16474 ± 1048 nmol/mg/h and the “10 μM migalastat α-Gal A activity” value is 26241 ± 1907 nmol/mg/h.

B2: F159Y (protein)
chain: MQLRNPELHLGCALALRFLALVSWDIPGARALDNGLARTPTMGWLHWERFMCNLDCQEEPDSCISEKLFMEMAELMVSEGWKDAGYEYLCIDDCWMAPQRDSEGRLQADPQRFPHGIRQLANYVHSKGLKLGIYADVGNKTCAGFPGSFGYYDIDAQTYADWGVDLLKFDGCYCDSLENLADGYKHMSLALNRTGRSIVYSCEWPLYMWPFQKPNYTEIRQYCNHWRNFADIDDSWKSIKSILDWTSFNQERIVDVAGPGGWNDPDMLVIGNFGLSWNQQVTQMALWAIMAAPLFMSNDLRHISPQAKALLQDKDVIAINQDPLGKQGYQLRQGDNFEVWERPLSGLAWAVAMINRQEIGGPRSYTIAVASLGKGVACNPACFITQLLPVKRKLGFYEWTSRLRSHINPTGTVLLQLENTMQMSLKDLL
On to B2, for which the “Absolute increase (% WT)” value worked out at 22.4 % WT, the Relative increase is reported as 3.9, the “10 μM migalastat α-Gal A activity (% WT)” value was 30.1 ± 1.7 % WT and the “Baseline α-Gal A activity (% WT)” value is given as 7.7 ± 0.7 % WT. In addition, the “Baseline α-Gal A activity” value worked out at 2573 ± 301 nmol/mg/h and the “10 μM migalastat α-Gal A activity” value is 10052 ± 825 nmol/mg/h.

B3: A160T (protein)
chain: MQLRNPELHLGCALALRFLALVSWDIPGARALDNGLARTPTMGWLHWERFMCNLDCQEEPDSCISEKLFMEMAELMVSEGWKDAGYEYLCIDDCWMAPQRDSEGRLQADPQRFPHGIRQLANYVHSKGLKLGIYADVGNKTCAGFPGSFGYYDIDAQTFTDWGVDLLKFDGCYCDSLENLADGYKHMSLALNRTGRSIVYSCEWPLYMWPFQKPNYTEIRQYCNHWRNFADIDDSWKSIKSILDWTSFNQERIVDVAGPGGWNDPDMLVIGNFGLSWNQQVTQMALWAIMAAPLFMSNDLRHISPQAKALLQDKDVIAINQDPLGKQGYQLRQGDNFEVWERPLSGLAWAVAMINRQEIGGPRSYTIAVASLGKGVACNPACFITQLLPVKRKLGFYEWTSRLRSHINPTGTVLLQLENTMQMSLKDLL
B3: the “Absolute increase (% WT)” value came to 31.3 % WT, the Relative increase is 1.4, the “10 μM migalastat α-Gal A activity (% WT)” value is listed as 90.9 ± 8.1 % WT and the “Baseline α-Gal A activity (% WT)” value came out at 59.6 ± 3.5 % WT. The “Baseline α-Gal A activity” value came out at 20193 ± 1713 nmol/mg/h and the “10 μM migalastat α-Gal A activity” value came out at 29082 ± 1980 nmol/mg/h.

B4: A160V (protein)
chain: MQLRNPELHLGCALALRFLALVSWDIPGARALDNGLARTPTMGWLHWERFMCNLDCQEEPDSCISEKLFMEMAELMVSEGWKDAGYEYLCIDDCWMAPQRDSEGRLQADPQRFPHGIRQLANYVHSKGLKLGIYADVGNKTCAGFPGSFGYYDIDAQTFVDWGVDLLKFDGCYCDSLENLADGYKHMSLALNRTGRSIVYSCEWPLYMWPFQKPNYTEIRQYCNHWRNFADIDDSWKSIKSILDWTSFNQERIVDVAGPGGWNDPDMLVIGNFGLSWNQQVTQMALWAIMAAPLFMSNDLRHISPQAKALLQDKDVIAINQDPLGKQGYQLRQGDNFEVWERPLSGLAWAVAMINRQEIGGPRSYTIAVASLGKGVACNPACFITQLLPVKRKLGFYEWTSRLRSHINPTGTVLLQLENTMQMSLKDLL
Consider B4, for which the “Absolute increase (% WT)” value is 21.9 % WT, the Relative increase stood at 1.4, the “10 μM migalastat α-Gal A activity (% WT)” value is 66 ± 4.8 % WT and the “Baseline α-Gal A activity (% WT)” value is 44.1 ± 2.7 % WT. Besides, the “Baseline α-Gal A activity” value worked out at 15511 ± 1847 nmol/mg/h and the “10 μM migalastat α-Gal A activity” value was determined as 22124 ± 1885 nmol/mg/h.

B5: A160S (protein)
chain: MQLRNPELHLGCALALRFLALVSWDIPGARALDNGLARTPTMGWLHWERFMCNLDCQEEPDSCISEKLFMEMAELMVSEGWKDAGYEYLCIDDCWMAPQRDSEGRLQADPQRFPHGIRQLANYVHSKGLKLGIYADVGNKTCAGFPGSFGYYDIDAQTFSDWGVDLLKFDGCYCDSLENLADGYKHMSLALNRTGRSIVYSCEWPLYMWPFQKPNYTEIRQYCNHWRNFADIDDSWKSIKSILDWTSFNQERIVDVAGPGGWNDPDMLVIGNFGLSWNQQVTQMALWAIMAAPLFMSNDLRHISPQAKALLQDKDVIAINQDPLGKQGYQLRQGDNFEVWERPLSGLAWAVAMINRQEIGGPRSYTIAVASLGKGVACNPACFITQLLPVKRKLGFYEWTSRLRSHINPTGTVLLQLENTMQMSLKDLL
For B5, the “Absolute increase (% WT)” value worked out at 29.9 % WT, the Relative increase was determined as 1.5, the “10 μM migalastat α-Gal A activity (% WT)” value amounted to 85.9 ± 6.3 % WT and the “Baseline α-Gal A activity (% WT)” value stood at 56 ± 3.1 % WT. The “Baseline α-Gal A activity” value turned out to be 18308 ± 685 nmol/mg/h and the “10 μM migalastat α-Gal A activity” value was determined as 27775 ± 1478 nmol/mg/h.

B6: A160G (protein)
chain: MQLRNPELHLGCALALRFLALVSWDIPGARALDNGLARTPTMGWLHWERFMCNLDCQEEPDSCISEKLFMEMAELMVSEGWKDAGYEYLCIDDCWMAPQRDSEGRLQADPQRFPHGIRQLANYVHSKGLKLGIYADVGNKTCAGFPGSFGYYDIDAQTFGDWGVDLLKFDGCYCDSLENLADGYKHMSLALNRTGRSIVYSCEWPLYMWPFQKPNYTEIRQYCNHWRNFADIDDSWKSIKSILDWTSFNQERIVDVAGPGGWNDPDMLVIGNFGLSWNQQVTQMALWAIMAAPLFMSNDLRHISPQAKALLQDKDVIAINQDPLGKQGYQLRQGDNFEVWERPLSGLAWAVAMINRQEIGGPRSYTIAVASLGKGVACNPACFITQLLPVKRKLGFYEWTSRLRSHINPTGTVLLQLENTMQMSLKDLL
As for B6, the “Absolute increase (% WT)” value was 19.0 % WT, the Relative increase is 1.4, the “10 μM migalastat α-Gal A activity (% WT)” value came to 54.1 ± 5.3 % WT and the “Baseline α-Gal A activity (% WT)” value is listed as 35.1 ± 3.7 % WT. Also, the “Baseline α-Gal A activity” value came to 13634 ± 2705 nmol/mg/h and the “10 μM migalastat α-Gal A activity” value came to 19647 ± 3137 nmol/mg/h.
